Measurements taken from patent US20250182853A1 (TOHOKU UNIVERSITY, published 2025).

Each binder was assayed against T1, Galectin-3 (UniProt P17931 1-250, limits assumed) (assay: ELISA, eight 2-fold dilutions starting from 1.5 uM).
T1 construct: Immobilized on magnetic particles for panning and on ELISA wells via NeutrAvidin; also called Gal-3; target Galectin-3
T1 sequence (P17931 whole entry): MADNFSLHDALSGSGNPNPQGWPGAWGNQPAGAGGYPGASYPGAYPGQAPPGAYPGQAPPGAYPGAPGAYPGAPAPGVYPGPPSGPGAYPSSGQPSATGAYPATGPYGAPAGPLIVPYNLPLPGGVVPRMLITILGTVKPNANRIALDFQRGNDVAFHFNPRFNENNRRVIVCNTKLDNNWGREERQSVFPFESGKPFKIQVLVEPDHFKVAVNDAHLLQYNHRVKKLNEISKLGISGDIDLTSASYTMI

Row | Binder | EC50 [nM]
1 | 1E2 mutant (2u2f mutant from Cluster 1) (designed binder, Purified monomer from a pET22b vector in E. coli (IMAC, SEC); The tag is not described) AHKLFIGGLPVDYNDDQVKELLTSFGPLKAFNLVKDSATGLSKGYAFAEYVDINVTDQAIAGLNGNVCHLHTLLVQRASVGAKNADYKDDDDKLEHHHHHH | 92.5
2 | 3B5 mutant (2u2f mutant from Cluster 3) (designed binder, Purified monomer from a pET22b vector in E. coli (IMAC, SEC); The tag is not described) AHKLFIGGLPADGDDDQVKELLTSFGPLKAFNLVKDSATGLSKGYAFAEYVDINVTDQAIAGLNGFATSRFSLLVQRASVGAKNADYKDDDDKLEHHHHHH | 277

The remaining lines, values ahead:

Row | EC50 [nM] | Binder
3 | 79.9 | 1H2 mutant (2u2f mutant from Cluster 1) (designed binder, Purified monomer from a pET22b vector in E. coli (IMAC, SEC); The tag is not described) AHKLFIGGLPVDYNDDQVKELLTSFGPLKAFNLVKDSATGLSKGYAFAEYVDINVTDQAIAGLNGSGSRIRALLVQRASVGAKNADYKDDDDKLEHHHHHH
4 | 201 | 4H5 mutant (2u2f mutant from Cluster 4) (designed binder, Purified monomer from a pET22b vector in E. coli (IMAC, SEC); The tag is not described) AHKLFIGGLPDYYGDDQVKELLTSFGPLKAFNLVKDSATGLSKGYAFAEYVDINVTDQAIAGLNGRFYGTATLLVQRASVGAKNADYKDDDDKLEHHHHHH
